Assay results: patent publication US20140242093A1, “METHODS AND COMPOSITIONS FOR MODULATING THE INNATE IMMUNE RESPONSE AND/OR MYOGENESIS IN A MAMMALIAN SUBJECT” (FRED HUTCHINSON CANCER RESEARCH CENTER, priority 2011, published 2014)

System: control human primary myoblasts
Test: Expression microarray of primary myoblasts transduced with lentivirus carrying DUX4-fl, DUX4-s or GFP
Procedure: Primary human myoblasts were collected and cultured as previously described (Snider et al., 2010). Primary myoblasts were maintained at or below 70% confluency for proliferation. For differentiation, cells were allowed to reach 95-100% confluency in growth medium. Once confluency was reached, the cells were changed to differentiation medium (F10 media supplemented with 1% horse serum, 10 μg/mL insulin, and 10 μg/mL transferrin, penicillin/streptomycin) and maintained for 4 days. Human RD cells were grown in DMEM in 10% bovine calf serum (Hyclone) and penicillin/streptomycin. The primary myoblasts were transduced with lentivirus carrying DUX-fl, DUX4- or GFP (MOI=15).
Expression microarrays were performed on the transduced cells at 24 hours after transduction as follows. […] Samples were analyzed by Illumina Human Whole Genome microarrays. Probe intensities were corrected, normalized, and summarized by the Lumi package of Bioconductor (Du et al., 2008). Differentially expressed genes were identified by the LIMMA package of Bioconductor (Wettenhall and Smyth, 2004). Gene set enrichment analysis (GSEA) was performed using the Bioconductor GOstats package (Falcon and Gentleman, 2007).

B1: DUX4-s: short splice form of DUX4 (SEQ ID NO:112), keeps the double-homeobox domains, lacks the C-terminal activation domain (protein, listed as Homo sapiens)
chain: MALPTPSDSTLPAEARGRGRRRRLVWTPSQSEALRACFERNPYPGIATRERLAQAIGIPEPRVQIWFQNERSRQLRQHRRESRPWPGRRGPPEGRRKRTAVTGSQTALLLRAFEKDRFPGIAAREELARETGLPESRIQIWFQNRRARHPGQGGRAPAQV
PNMA6B expression fc (Refseq XM_001721351.1): −0.2189
LOC100133984 expression fc (Refseq XM_001723079.1): −0.03265
LOC649330 expression fc (Refseq XM_001723218.1): −0.2697
LOC100128202 expression fc (Refseq XM_001723719.1): −0.1157
LOC100130311 expression fc (Refseq XM_001724111.1): 0.1436
LOC100131539 expression fc (Refseq XM_001724873.1): 0.06524
LOC100134006 expression fc (Refseq XM_001725030.1): −0.02089
LOC730167 expression fc (Refseq XM_001726158.1): 1.257
LOC100129681 expression fc (Refseq XM_001726834.1, cultured human skeletal muscle): 0.5189
LOC651709 expression fc (Refseq XM_001732813.1): 0.09445
LOC727828 expression fc (Refseq XR_015137.1): −0.00556
LOC728060 fc (Refseq XR_015272.2): 0.2553
LOC732393 expression fc (Refseq XR_015873.1): 0.03683
MGC40489 expression fc (Refseq XR_016048.1): −0.4604
LOC643263 expression fc (Refseq XR_016355.1): −0.133
LOC441081 expression fc (Refseq XR_017029.1): 0.06023
LOC647366 expression fc (Refseq XR_018122.1): −0.003339
LOC440041 expression fc (Refseq XR_018122.2): 0.021
LOC647827 expression fc (Refseq XR_018213.1): −0.05208
LOC399988 expression fc (Refseq XR_018287.2): −0.4131
LOC650215 fc (Refseq XR_018889.1): 0.6386
fc of RBMS2P (expression array) (Refseq XR_019556.2): 1.313
LOC642148 expression fc (Refseq XR_019607.1): 0.1352
LOC650236 expression fc (Refseq XR_036872.1): −0.05945
LOC100134322 expression fc (Refseq XR_037416.1): 0.1962
LOC730974 expression fc (Refseq XR_037751.1): 0.02384
LOC643445 expression fc (Refseq XR_038080.1): 0.07882
LOC729516 expression fc (Refseq XR_038445.1): −0.00369
LOC340970 expression fc (Refseq XR_038494.1): 0.03296
LOC645381 expression fc (Refseq XR_038557.1): −0.1266
LOC728429 expression fc (Refseq XR_038921.1): −0.02834
LOC645638 fc (Refseq XR_040455.1): −0.07113
LOC400464 expression fc (Refseq XR_041115.1): −0.07853
TRIM53 expression fc (Refseq XR_041244.1): 0.07913
LOC729009 expression fc (Refseq XR_042330.1, cultured human skeletal muscle): 0.6634
ABCC3 expression fc (cultured human skeletal muscle): 0.1349
ADM expression fc (cultured human skeletal muscle): 0.6367
AGTRAP expression fc (cultured human skeletal muscle): 0.6152
AHNAK expression fc (cultured human skeletal muscle): 0.163
ANGPTL2 expression fc (cultured human skeletal muscle): −0.7837
ANKFY1 expression fc (cultured human skeletal muscle): 0.09409
APOL3 expression fc (cultured human skeletal muscle): 0.9777
ARHGEF19 expression fc (cultured human skeletal muscle): 0.1103
ARID3A expression fc (cultured human skeletal muscle): 0.2867
ASNS expression fc (cultured human skeletal muscle): 0.7133
ATF5 expression fc (cultured human skeletal muscle): 0.5025
ATL3 expression fc (cultured human skeletal muscle): 1.352
BHLHB2 expression fc (cultured human skeletal muscle): 0.6222
BTG2 expression fc (cultured human skeletal muscle): −0.1242
BTN3A2 expression fc (cultured human skeletal muscle): 0.3356
BTN3A3 expression fc (cultured human skeletal muscle): 0.4019
C1RL expression fc (cultured human skeletal muscle): −0.1589
C4orf18 expression fc (cultured human skeletal muscle): −0.5109
C8orf13 expression fc (cultured human skeletal muscle): 0.4235
C14orf4 expression fc (cultured human skeletal muscle): 0.05349
C18orf56 expression fc (cultured human skeletal muscle): 0.2126
CA9 expression fc (cultured human skeletal muscle): 0.5237
CABC1 expression fc (cultured human skeletal muscle): −0.1757
CABYR expression fc (cultured human skeletal muscle): −0.04313
CCDC8 expression fc (cultured human skeletal muscle): −0.09225
CEBPD expression fc (cultured human skeletal muscle): 0.1596
CLDN15 expression fc (cultured human skeletal muscle): −0.3718
CNTNAP1 expression fc (cultured human skeletal muscle): 0.1486
COL8A1 expression fc (cultured human skeletal muscle): 0.469
CRISPLD2 expression fc (cultured human skeletal muscle): −0.45
CSF3 expression fc (cultured human skeletal muscle): 0.8126
CYGB expression fc (cultured human skeletal muscle): 0.157
CYP26B1 expression fc (cultured human skeletal muscle): 0.4149
CYP27A1 expression fc (cultured human skeletal muscle): −0.0598
DAB2 expression fc (cultured human skeletal muscle): 0.1092
DCN expression fc (cultured human skeletal muscle): 0.2641
DDB2 expression fc (cultured human skeletal muscle): 0.1073
DDIT4 expression fc (cultured human skeletal muscle): 0.346
DDX60L expression fc (cultured human skeletal muscle): 0.6578
DKFZp451A211 expression fc (cultured human skeletal muscle): 0.3087
DNAJB2 expression fc (cultured human skeletal muscle): −0.01635
DUSP10 expression fc (cultured human skeletal muscle): −0.3659
ERAP2 expression fc (cultured human skeletal muscle): 0.7658
ESPNL expression fc (cultured human skeletal muscle): −0.2957
FADS1 expression fc (cultured human skeletal muscle): 0.4186
FAM110B expression fc (cultured human skeletal muscle): −0.7651
FAM175A expression fc (cultured human skeletal muscle): 0.2667
FHL2 expression fc (cultured human skeletal muscle): −0.08794
FILIP1L expression fc (cultured human skeletal muscle): 0.06528
FKBP5 expression fc (cultured human skeletal muscle): −0.1027
FOXQ1 expression fc (cultured human skeletal muscle): 0.6403
FPR1 expression fc (cultured human skeletal muscle): 0.9327
FST expression fc (cultured human skeletal muscle): 0.9107
FUCA1 expression fc (cultured human skeletal muscle): 0.2909
GALK1 expression fc (cultured human skeletal muscle): −0.5288
GALNTL2 expression fc (cultured human skeletal muscle): 0.9881
GAS1 expression fc (cultured human skeletal muscle): 0.007049
GBP4 expression fc (cultured human skeletal muscle): 2.337
GFPT2 expression fc (cultured human skeletal muscle): 0.04945
GPX8 expression fc (cultured human skeletal muscle): −0.3321
GRINA expression fc (cultured human skeletal muscle): 0.4683
GSDMD expression fc (cultured human skeletal muscle): 0.5738
HAS2 expression fc (cultured human skeletal muscle): 0.691
HCG4 expression fc (cultured human skeletal muscle): 0.6838
HES4 expression fc (cultured human skeletal muscle): 1.068
HLA-C expression fc (cultured human skeletal muscle): 0.6015
HLA-H expression fc (cultured human skeletal muscle): 0.327
HOXC6 expression fc (cultured human skeletal muscle): −0.1927
ID3 expression fc (cultured human skeletal muscle): −0.07117
IDH3B expression fc (cultured human skeletal muscle): 0.07117
IFIT5 expression fc (cultured human skeletal muscle): −0.2831
IFITM2 expression fc (cultured human skeletal muscle): 0.006726
IGFBP5 expression fc (cultured human skeletal muscle): 0.178
IHPK3 expression fc (cultured human skeletal muscle): −0.09089
IL32 expression fc (cultured human skeletal muscle): 0.06112
IMPA2 expression fc (cultured human skeletal muscle): −0.3411
IRAK2 expression fc (cultured human skeletal muscle): 0.5116
IRAK3 expression fc (cultured human skeletal muscle): 1.053
ISCU expression fc (cultured human skeletal muscle): 0.03975
ITPRIP expression fc (cultured human skeletal muscle): 0.5516
KIAA1618 expression fc (cultured human skeletal muscle): −0.2961
KLF6 expression fc (cultured human skeletal muscle): 0.6419
KRT17 expression fc (cultured human skeletal muscle): 0.4585
LAP3 expression fc (cultured human skeletal muscle): 1.402
LIMA1 expression fc (cultured human skeletal muscle): 0.2565
LOC387763 expression fc (cultured human skeletal muscle): 0.2048
LOC389386 expression fc (cultured human skeletal muscle): 1.37
LOC392437 expression fc (cultured human skeletal muscle): 0.113
LOC653879 expression fc (cultured human skeletal muscle): 0.3261
LOC728431 expression fc (cultured human skeletal muscle): 0.4549
MAMDC2 expression fc (cultured human skeletal muscle): −0.02851
MAOA expression fc (cultured human skeletal muscle): −0.3759
MCEE expression fc (cultured human skeletal muscle): −0.341
MGC16121 expression fc (cultured human skeletal muscle): 0.01304
MIOS expression fc (cultured human skeletal muscle): 0.1238
MLPH expression fc (cultured human skeletal muscle): 0.4233
MMP3 expression fc (cultured human skeletal muscle): 0.2839
MOCOS expression fc (cultured human skeletal muscle): 0.4177
MOV10 expression fc (cultured human skeletal muscle): 0.6869
MSC expression fc (cultured human skeletal muscle): 0.2529
MSI2 expression fc (cultured human skeletal muscle): 1.327
MT1A expression fc (cultured human skeletal muscle): −0.1212
MT2A expression fc (cultured human skeletal muscle): 0.08469
MUC1 expression fc (cultured human skeletal muscle): 0.3508
